The text below walks through data of patent publication US20070274969A1 (published 2007).

The chains are these.
B2: human Bub1, endogenous (enzyme)
chain: MDTPENVLQMLEAHMQSYKGNDPLGEWERYIQWVEENFPENKEYLITLLEHLMKEFLDKKKYHNDPRFISYCLKFAEYNSDLHQFFEFLYNHGIGTLSSPLYIAWAGHLEAQGELQHASAVLQRGIQNQAEPREFLQQQYRLFQTRLTETHLPAQARTSEPLHNVQVLNQMITSKSNPGNNMACISKNQGSELSGVISSACDKESNMERRVITISKSEYSVHSSLASKVDVEQVVMYCKEKLIRGESEFSFEELRAQKYNQRRKHEQWVNEDRHYMKRKEANAFEEQLLKQKMDELHKKLHQVVETSHEDLPASQERSEVNPARMGPSVGSQQELRAPCLPVTYQQTPVNMEKNPREAPPVVPPLANAISAALVSPATSQSIAPPVPLKAQTVTDSMFAVASKDAGCVNKSTHEFKPQSGAEIKEGCETHKVANTSSFHTTPNTSLGMVQATPSKVQPSPTVHTKEALGFIMNMFQAPTLPDISDDKDEWQSLDQNEDAFEAQFQKNVRSSGAWGVNKIISSLSSAFHVFEDGNKENYGLPQPKNKPTGARTFGERSVSRLPSKPKEEVPHAEEFLDDSTVWGIRCNKTLAPSPKSPGDFTSAAQLASTPFHKLPVESVHILEDKENVVAKQCTQATLDSCEENMVVPSRDGKFSPIQEKSPKQALSSHMYSASLLRLSQPAAGGVLTCEAELGVEACRLTDTDAAIAEDPPDAIAGLQAEWMQMSSLGTVDAPNFIVGNPWDDKLIFKLLSGLSKPVSSYPNTFEWQCKLPAIKPKTEFQLGSKLVYVHHLLGEGAFAQVYEATQGDLNDAKNKQKFVLKVQKPANPWEFYIGTQLMERLKPSMQHMFMKFYSAHLFQNGSVLVGELYSYGTLLNAINLYKNTPEKVMPQGLVISFAMRMLYMIEQVHDCEIIHGDIKPDNFILGNGFLEQDDEDDLSAGLALIDLGQSIDMKLFPKGTIFTAKCETSGFQCVEMLSNKPWNYQIDYFGVAATVYCMLFGTYMKVKNEGGECKPEGLFRRLPHLDMWNEFFHVMLNIPDCHHLPSLDLLRQKLKKVFQQHYTNKIRALRNRLIVLLLECKRSRK
notes: mature; also called hBub1; Bub1 (U2OS cells)

The assay “human Bub1, endogenous” has as its target B2. Briefly: co-immunoprecipitation from U2OS stable lines.
In a further assay the target is T1, T antigen mutant D44N (SV40, UniProt P03070 1-708).
T1 construct: Defective DnaJ domain
Briefly: co-immunoprecipitation from U2OS stable lines.

Assay [1] has as its target T2, SV40 large T antigen, wild-type (SV40, UniProt P03070 1-708).
T2 construct: also called wild-type T antigen; T Ag
Briefly: co-immunoprecipitation from U2OS/T cell lysates.

Assay [2] concerns the target T2, SV40 large T antigen, wild-type. Briefly: co-immunoprecipitation from NIH3T3/T cell lysates.

B1: T antigen deletion mutant dl89-97 (other)
chain: MDKVLNREESLQLMDLLGLERSAWGNIPLMRKAYLKKCKEFHPDKGGDEEKMKKMNTLYKKMEDGVKYAHQPDFGGFWDATEIPTYGTFNEENLFCSEEMPSSDDEATADSQHSTPPKKKRKVEDPKDFPSELLSFLSHAVFSNRTLACFAIYTTKEKAALLYKKIMEKYSVTFISRHNSYNHNILFFLTPHRHRVSAINNYAQKLCTFSFLICKGVNKEYLMYSALTRDPFSVIEESLPGGLKEHDFNPEEAEETKQVSWKLVTEYAMETKCDDVLLLLGMYLEFQYSFEMCLKCIKKEQPSHYKYHEKYYANAAIFADSKNQKTICQQAVDTVLAKKRVDSLQLTREQMLTNRFNDLLDRMDIMFGSTGSADIEEWMAGVAWLHCLLPKMDSVVYDFLKCMVYNIPKKRYWLFKGPIDSGKTTLAAALLELCGGKALNVNLPLDRLNFELGVAIDQFLVVFEDVKGTGGESRDLPSGQGINNLDNLRDYLDGSVKVNLEKKHLNKRTQIFPPGIVTMNEYSVPKTLQARFVKQIDFRPKDYLKHCLERSEFLLEKRIIQSGIALLLMLIWYRPVAEFAQSIQSRIVEWKERLDKEFSLSVYQKMKFNVAMGIGVLDWLRNSDDDDEDSQENADKNEDGGEKNMEDSGHETGIDSQSQGSFQAPQSSQSVHDHNQPYHICRGFTCFKKPPTPPPEPET
As to B1, in the assay with human Bub1, endogenous, the binding result is “no binding”.

In the case of B2, the binding result (in the assay with T antigen mutant D44N; in assay [1]) was “binds” throughout.

B3: mouse Bub1, endogenous (enzyme)
chain: MDNLENVFRMFEAHMQSYTGNDPLGEWESFIKWVEENFPDNKEYLMTLLEHLMKEFLHKKNYHNDSRFINYCLKFAEYNSDRHQFFEFLYNQGIGTKSSYIYMSWAGHLEAQGELQHASAIFQTGIHNEAEPKELLQQQYRLFQARLTGIHLPAQATTSEPLHSAQILNQVMMTNSSPEKNSACVPKSQGSECSGVASSTCDEKSNMEQRVIMISKSECSVSSSVAPKPEAQQVMYCKEKLIRGDSEFSFEELRAQKYNQRKKHEQWVSEDRNYMKRKEANAFEEQLLKQKMDELHKKLHQVVELSHKDLPASENRPDVSLVCVGQNTCSQQELRGPSLSSISHQTSESSGEKPQEEPSVPLMVNAVNSTLLFPAANLPALPVPVSGQSLTDSRCVNQSVHEFMPQCGPETKEVCETNKVASINDFHTTPNTSLGMVQGTPCKVQPSPTVHTKEALGFIMDMFQAPTLPDISDDKDEWPSLDQNEDAFEAQFQKNAVSSGDWGVKKIMTLSSAFPIFEDGNKENYGLPQPKNKPLGARTFGERSLSKYSSRSNEMPHTDEFMDDSTVCGIRCNKTLAPSPKSIGDFTSAAQLSSTPFHKFPADLVQIPEDKENVVATQYTHMALDSCKENIVDLSKGRKLGPIQEKISASLPCPSQPATGGLFTQEAVFGLEAFKCTGIDHATVEDLSDANAGLQVECVQTLGNVNAPSFTVENPWDDELILKLLSGLSKPVTSYSNTFEWQSKLPAIKTKTEYQLGSLLVYVNHLLGEGAFAQVFEAIHGDVRNAKSEQKCILKVQRPANSWEFYIGMQLMERLKPEVHHMFIKFYSAHLFKNGSILVGELYSYGTLLNVINLYKNTSEKVMPQALVLTFAIRMLYMVEQVHSCEIIHGDIKPDNFILGHRFLEQADEDLATGLALIDLGQSIDMKLFPKGTVFTGKCETSGFQCPEMLSNKPWNYQIDYFGVAATIYCMLFGSYMKVKNEGGVWKPEGLFRRLPHLDMWEEFFHIMLNIPDCHNLPSLDFLRQNMKKLLEQQYSNKIKTLRNRLIVMLSEYKRSRK
notes: mature; also called mBub1; Bub1 (NIH3T3 cells)
Take B3: in assay [2], the binding result is “binds”.
